{"source": "patent US20240287172A1", "about": "(SCIRHOM, published 2024)", "target": "T1, human iRhom1, endogenously expressed (human, UniProt Q96CC6 1-855)", "T1 construct": "also called iRhom1 on RH-30 cells", "T1 sequence": "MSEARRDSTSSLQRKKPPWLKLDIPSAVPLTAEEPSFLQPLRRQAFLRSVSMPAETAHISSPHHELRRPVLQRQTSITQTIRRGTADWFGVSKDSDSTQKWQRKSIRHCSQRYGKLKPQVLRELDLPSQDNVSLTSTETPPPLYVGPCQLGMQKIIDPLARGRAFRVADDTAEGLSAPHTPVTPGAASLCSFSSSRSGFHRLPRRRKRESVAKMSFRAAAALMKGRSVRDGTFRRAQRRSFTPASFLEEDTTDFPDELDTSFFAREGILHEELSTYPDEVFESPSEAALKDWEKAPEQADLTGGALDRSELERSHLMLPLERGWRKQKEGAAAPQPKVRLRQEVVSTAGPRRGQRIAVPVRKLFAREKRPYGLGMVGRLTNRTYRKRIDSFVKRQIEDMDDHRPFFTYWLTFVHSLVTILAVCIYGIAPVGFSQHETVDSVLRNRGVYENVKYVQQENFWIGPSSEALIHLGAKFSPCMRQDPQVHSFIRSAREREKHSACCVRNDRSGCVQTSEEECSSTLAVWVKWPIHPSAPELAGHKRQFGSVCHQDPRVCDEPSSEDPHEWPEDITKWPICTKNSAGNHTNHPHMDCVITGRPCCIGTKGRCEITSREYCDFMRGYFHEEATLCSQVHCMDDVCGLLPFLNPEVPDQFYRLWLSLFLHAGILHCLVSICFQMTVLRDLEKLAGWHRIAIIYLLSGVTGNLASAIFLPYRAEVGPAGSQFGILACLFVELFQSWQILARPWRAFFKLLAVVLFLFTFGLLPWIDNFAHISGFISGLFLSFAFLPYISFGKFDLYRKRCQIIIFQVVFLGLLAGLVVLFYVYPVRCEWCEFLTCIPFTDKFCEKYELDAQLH", "test": "FACS, RH-30 cells; via representative antibody 16", "experimental": "In this study, binding specificity analyses of the hybridoma supernatant leading to the antibody 16 of the invention as a representative example of antibodies 3, 16, 22 and 42 of the invention as well as of the antibody 16 of the invention as a representative example of antibodies 16, 22 and 42 of the invention in cell lines endogenously expressing iRhom2 were performed. The studies were conducted on RPMI-8226 cells, a human B lymphocytic cell line endogenously expressing iRhom2 but being endogenously negative for iRhom1, on THP-1 cells, a human monocytic cell line endogenously expressing both iRhom2 and iRhom1 and on RH-30 cells, a human […] cell line endogenously negative for iRhom2 but endogenously expressing iRhom1.\nIn brief, human RPMI-8226 cells (Deutsche Sammlung von Mikroorganismen und Zellkulturen, Germany), THP-1 cells (American Type Culture Collection, USA) and RH-30 cells (Deutsche Sammlung von Mikroorganismen und Zellkulturen, Germany) were harvested with 10 mM EDTA in PBS, washed and resuspended in FACS buffer (PBS, 3% FBS, 0.05% sodium azide), and seeded in Nunc U-bottom 96-well plates (Thermo Fisher Scientific, USA) at approximately 2×10⁵ cells per well. […] Finally, cells were resuspended in 150 μl per well of FACS buffer and analyzed using a BD Accuri™ C6 Plus flow cytometer (Becton Dickinson, Germany)."}
{"binder": "antibody 22 (antibody, V domains shown, mouse IgG, kappa light chain; also called clone #22; purified antibody 22) VH: QVTLKESGPGILQPSQTLSLTCSFSGFSLSTFGMGVGWIRQPSGKGLEWLAHIWWDDEKYYNSALKSRLTISKATSKNQVFLKIANVDTADTATYYCARISNYGSNYWYFNVWGTGTTVTVSS VL: QVVLTQSPALMSASPGEKVTMTCSAGSSVSYMYWYQQKPGSSPRVLIYDTSNLASGVPARFTGSGSGTSYSLTISRMEAEDAATYYCQQWNSYPLTFGAGTKLELK", "values": [{"measurement": "binding result", "result": "no binding (tested: 3 µg/ml)"}]}
{"binder": "antibody 42 (antibody, V domains shown, mouse IgG, kappa light chain; also called clone #42; purified antibody 42) VH: QVTLKESGPGILQPSQTLSLTCSLSGFSLSTFGRGVGWIRQPSGKGLEWLAHIWWDDEKYYNPALKSRLTISKDTSKNQVFLRIANVDTADTATYYCARIQNYGSNYWYFDVWGTGTTVTVSS VL: LIVLTQSPAIMSASPGEKVTMTCGATSRISYMFWYQQKPGSSPRVLIYDTSNLASGVPVRFSGSGSGTSYSLTISRVEAEDVATYYCQQWNSYPLTFGAGTKLELK", "values": [{"measurement": "binding result", "result": "no binding (tested: 3 µg/ml)"}]}
